Reference: the Human Domainome abundance scans (Beltran et al. 2025)
± gives the uncertainty stated by the source.

B1: POU domain, class 5, transcription factor 1, residues 134 to 212; numbered along this chain, Q01860 (parent)
chain: EESQDIKALQKELEQFAKLLKQKRITLGYTQADVGLTLGVLFGKVFSQTTICRFEALQLSFKNMCKLRPLLQKWVEEAD

Variants of: B1
Assay: abundance fitness (aPCA) (normalised: wild type 0, dead -1); higher = more abundant; growth selection in yeast, the domain comes from the species named
Settings: Homo sapiens

Variant	abundance fitness
L71F	-0.562 ± 0.29
L71A	-0.51 ± 0.13
L71R	-0.509 ± 0.11
L71C	-0.474 ± 0.2
L71E	-0.344 ± 0.16
L71H	-0.207 ± 0.24
L67A	-0.612 ± 0.16
L67T	-0.494 ± 0.29
L67M	-0.052 ± 0.16
L67E	-0.289 ± 0.17
L67C	-0.363 ± 0.27
L67N	0.553 ± 0.28
L67R	-0.575 ± 0.12
L67S	-0.608 ± 0.22
L67W	-0.851 ± 0.26
L67Q	-0.756 ± 0.39
L70T	-0.325 ± 0.23
L70V	-0.406 ± 0.16
L70Q	0.143 ± 0.29
L70R	-0.653 ± 0.21
L70C	-0.171 ± 0.29
L70G	-0.574 ± 0.2
L70P	-0.364 ± 0.22
L70Y	0.262 ± 0.17

Variant	abundance fitness
L70W	-0.442 ± 0.22
L70F	0.145 ± 0.26
Q58E	0.126 ± 0.11
Q58G	-0.573 ± 0.25
Q58W	-0.179 ± 0.34
Q58K	-0.035 ± 0.2
Q58S	-0.307 ± 0.17
Q58T	-0.097 ± 0.2
Q58L	-0.43 ± 0.3
Q58R	-0.31 ± 0.12
Q58A	-0.5 ± 0.21
Q58D	-0.03 ± 0.19
S60Q	-0.415 ± 0.36
S60P	0.084 ± 0.15
S60E	-0.173 ± 0.15
S60C	-0.449 ± 0.47
S60R	-0.556 ± 0.14
S60W	-0.381 ± 0.31
S60D	0.197 ± 0.15
S60I	-0.284 ± 0.5
S60V	-0.843 ± 0.25
S60A	-0.273 ± 0.14
S60L	-0.265 ± 0.21
S60G	-0.268 ± 0.09

Variant	abundance fitness
R68P	-0.734 ± 0.33
R68T	-0.436 ± 0.19
R68G	-0.797 ± 0.23
R68Q	-0.384 ± 0.16
R68S	-0.535 ± 0.25
R68V	-0.609 ± 0.18
R68D	-0.621 ± 0.4
R68W	0 ± 0.11
R68Y	0.356 ± 0.19
R68A	-0.265 ± 0.14
R68E	-0.421 ± 0.26
R68K	-0.154 ± 0.2
R68L	-0.222 ± 0.1
L59A	-0.81 ± 0.35
L59M	-0.054 ± 0.17
L59S	-0.453 ± 0.22
L59C	0.009 ± 0.28
L59E	0.101 ± 0.17
L59T	-0.533 ± 0.46
L59V	-0.7 ± 0.25
L59N	0.124 ± 0.34
L59R	-0.561 ± 0.2
L59G	-0.432 ± 0.11
L59P	-0.312 ± 0.37

Variant	abundance fitness
F61T	0.063 ± 0.17
F61V	0.031 ± 0.097
F61E	-0.8 ± 0.21
F61I	0.132 ± 0.24
F61A	-0.147 ± 0.12
F61K	-0.206 ± 0.16
F61M	0.04 ± 0.11
F61L	0.036 ± 0.12
F61R	-0.422 ± 0.1
F61P	0.202 ± 0.13
F61Y	-0.09 ± 0.5
F61G	-0.466 ± 0.092
F61N	-0.275 ± 0.29
F61W	-0.035 ± 0.091
F61Q	-0.111 ± 0.17
F61C	-0.441 ± 0.31
C65G	-0.691 ± 0.12
C65R	-0.18 ± 0.073
C65V	-0.178 ± 0.097
C65T	-0.403 ± 0.23
C65Q	0.074 ± 0.13
C65N	-0.343 ± 0.29
C65W	-0.289 ± 0.12
C65S	-0.393 ± 0.15

Variant	abundance fitness
C65K	-0.271 ± 0.22
C65A	-0.381 ± 0.13
C65Y	-0.449 ± 0.32
C65I	0.246 ± 0.2
C65L	0.14 ± 0.077
C65D	0.155 ± 0.16
C65M	-0.04 ± 0.14
Q48F	-0.343 ± 0.41
Q48L	-0.435 ± 0.35
Q48M	0.348 ± 0.35
Q48P	0.097 ± 0.23
Q48G	0.24 ± 0.076
Q48R	0.126 ± 0.1
Q48D	0.164 ± 0.44
Q48E	0.484 ± 0.14
Q48A	0.162 ± 0.15
Q48S	0.208 ± 0.17
Q48K	0.079 ± 0.31
E55Q	-0.498 ± 0.38
E55V	-1.04 ± 0.41
E55G	-0.66 ± 0.15
E55M	-0.907 ± 0.39
E55S	-0.418 ± 0.27
E55R	-0.607 ± 0.16

Variant	abundance fitness
E55W	-0.555 ± 0.26
E55K	-0.495 ± 0.26
E55I	-0.365 ± 0.33
L57S	-0.306 ± 0.16
L57N	0.261 ± 0.34
L57G	0.094 ± 0.078
L57P	-0.005 ± 0.22
L57H	0.298 ± 0.2
L57T	-0.344 ± 0.29
L57A	-0.58 ± 0.22
L57V	-0.066 ± 0.13
L57Q	0.106 ± 0.2
L57K	-0.45 ± 0.28
L57M	0.152 ± 0.16
L57Y	0.129 ± 0.29
L57E	-0.694 ± 0.4
L57C	0.035 ± 0.18
L57R	-0.234 ± 0.098
L57D	-0.509 ± 0.34
L57W	-0.355 ± 0.17
K66D	-0.477 ± 0.3
K66P	-0.51 ± 0.27
K66V	-0.365 ± 0.15
K66Q	-0.051 ± 0.19

Variant	abundance fitness
K66N	0.209 ± 0.32
K66S	0.003 ± 0.12
K66T	-0.187 ± 0.16
K66A	-0.011 ± 0.097
K66F	0.04 ± 0.28
K66M	0.113 ± 0.12
K66G	-0.185 ± 0.091
K66R	-0.01 ± 0.093
T49Q	0.206 ± 0.096
T49L	-0.418 ± 0.12
T49P	-0.281 ± 0.23
T49N	-0.111 ± 0.24
T49D	0.044 ± 0.16
T49F	-0.432 ± 0.46
T49H	0.109 ± 0.21
T49G	-0.243 ± 0.082
T49C	-0.524 ± 0.27
T49A	0.02 ± 0.11
T49E	0.186 ± 0.11
T49W	-0.259 ± 0.15
T49S	-0.072 ± 0.11
T49K	0.235 ± 0.12
T49V	-0.272 ± 0.097
